Km, kcat and kcat/Km data for 2 proteins are collected here from article PMC2661844, “HD-PTP Is a Catalytically Inactive Tyrosine Phosphatase Due to a Conserved Divergence in Its Phosphatase Domain” (PLoS ONE, 2009).

Substrate in data set [1]: Cc1cc(=O)oc2c(F)c(OP(=O)(O)O)c(F)cc12
The data set is described as follows: fluorogenic DiFMUP hydrolysis, Michaelis-Menten fit. The class given is biochemical, Homo sapiens. The settings on record: 50 mM Hepes, 3 mM DTT, 0.1 mg/ml BSA, pH 6.5, 37 °C, DiFMUP 0-300 µM, wild type inactive. The text has this: fluorogenic DiFMUP hydrolysis, Michaelis-Menten fit on Flag-HD-PTP catalytic domain (CD)

Substrate in data set [2]: Cc1cc(=O)oc2c(F)c(OP(=O)(O)O)c(F)cc12
The data set is described as above. It is filed as biochemical, Homo sapiens. The settings on record: 50 mM Hepes, 3 mM DTT, 0.1 mg/ml BSA, pH 6.5, 37 °C, DiFMUP 0-300 µM, wild type inactive. The source says: fluorogenic DiFMUP hydrolysis, Michaelis-Menten fit on Flag-HD-PTP full-length (HD)
The source holds these as a separate data set.

B1: Flag-HD-PTP catalytic domain (CD) (Homo sapiens; S1394A) (protein)
chain: ERLRQLQQELEAFRGQLGDVGALDTVWRELQDAQEHDARGRSIAIARCYSLKNRHQDVMPYDSNRVVLRSGKDDYINASCVEGLSPYCPPLVATQAPLPGTAADFWLMVHEQKVSVIVMLVSEAEMEKQKVARYFPTERGQPMVHGALSLALSSVRSTETHVERVLSLQFRDQSLKRSLVHLHFPTWPELGLPDSPSNLLRFIQEVHAHYLHQRPLHTPIIVHCSAGVGRTGAFALLYAAVQEVEAGNGIPELPQLVRRMRQQRKHMLQEKLHLRFCYEAVVRHVEQVLQRH
notes: PTP catalytic domain, residues 1169-1460, 2xFlag tag kept, expressed in HEK 293T, anti-Flag purified
Take B1: in data set [1], the Km (in general, the concentration of substrate that gives half-maximal velocity) was 18 µM; the kcat (commonly the number of substrate molecules converted per active site and unit of time at saturation) was determined as 0.1 s⁻¹.

B2: Flag-HD-PTP full-length (HD) (Homo sapiens; S1394A) (protein)
chain: MEAVPRMPMIWLDLKEAGDFHFQPAVKKFVLKNYGENPEAYNEELKKLELLRQNAVRVPRDFEGCSVLRKYLGQLHYLQSRVPMGSGQEAAVPVTWTEIFSGKSVAHEDIKYEQACILYNLGALHSMLGAMDKRVSEEGMKVSCTHFQCAAGAFAYLREHFPQAYSVDMSRQILTLNVNLMLGQAQECLLEKSMLDNRKSFLVARISAQVVDYYKEACRALENPDTASLLGRIQKDWKKLVQMKIYYFAAVAHLHMGKQAEEQQKFGERVAYFQSALDKLNEAIKLAKGQPDTVQDALRFTMDVIGGKYNSAKKDNDFIYHEAVPALDTLQPVKGAPLVKPLPVNPTDPAVTGPDIFAKLVPMAAHEASSLYSEEKAKLLREMMAKIEDKNEVLDQFMDSMQLDPETVDNLDAYSHIPPQLMEKCAALSVRPDTVRNLVQSMQVLSGVFTDVEASLKDIRDLLEEDELLEQKFQEAVGQAGAISITSKAELAEVRREWAKYMEVHEKASFTNSELHRAMNLHVGNLRLLSGPLDQVRAALPTPALSPEDKAVLQNLKRILAKVQEMRDQRVSLEQQLRELIQKDDITASLVTTDHSEMKKLFEEQLKKYDQLKVYLEQNLAAQDRVLCALTEANVQYAAVRRVLSDLDQKWNSTLQTLVASYEAYEDLMKKSQEGRDFYADLESKVAALLERTQSTCQAREAARQQLLDRELKKKPPPRPTAPKPLLPRREESEAVEAGDPPEELRSLPPDMVAGPRLPDTFLGSATPLHFPPSPFPSSTGPGPHYLSGPLPPGTYSGPTQLIQPRAPGPHAMPVAPGPALYPAPAYTPELGLVPRSSPQHGVVSSPYVGVGPAPPVAGLPSAPPPQFSGPELAMAVRPATTTVDSIQAPIPSHTAPRPNPTPAPPPPCFPVPPPQPLPTPYTYPAGAKQPIPAQHHFSSGIPAGFPAPRIGPQPQPHPQPHPSQAFGPQPPQQPLPLQHPHLFPPQAPGLLPPQSPYPYAPQPGVLGQPPPPLHTQLYPGPAQDPLPAHSGALPFPSPGPPQPPHPPLAYGPAPSTRPMGPQAAPLTIRGPSSAGQSTPSPHLVPSPAPSPGPGPVPPRPPAAEPPPCLRRGAAAADLLSSSPESQHGGTQSPGGGQPLLQPTKVDAAEGRRPQALRLIERDPYEHPERLRQLQQELEAFRGQLGDVGALDTVWRELQDAQEHDARGRSIAIARCYSLKNRHQDVMPYDSNRVVLRSGKDDYINASCVEGLSPYCPPLVATQAPLPGTAADFWLMVHEQKVSVIVMLVSEAEMEKQKVARYFPTERGQPMVHGALSLALSSVRSTETHVERVLSLQFRDQSLKRSLVHLHFPTWPELGLPDSPSNLLRFIQEVHAHYLHQRPLHTPIIVHCSAGVGRTGAFALLYAAVQEVEAGNGIPELPQLVRRMRQQRKHMLQEKLHLRFCYEAVVRHVEQVLQRHGVPPPCKPLASASISQKNHLPQDSQDLVLGGDVPISSIQATIAKLSIRPPGGLESPVASLPGPAEPPGLPPASLPESTPIPSSSPPPLSSPLPEAPQPKEEPPVPEAPSSGPPSSSLELLASLTPEAFSLDSSLRGKQRMSKHNFLQAHNGQGLRATRPSDDPLSLLDPLWTLNKT
notes: full length, residues 1-1636, 2xFlag tag kept, expressed in HEK 293T, anti-Flag purified
Regarding B2, in data set [2], the Km was 28 µM, the kcat stood at 0.2 s⁻¹ and the kcat/Km (commonly the turnover number divided by the Michaelis constant) came out at 6000 M⁻¹ s⁻¹.
